Results published in patent US20170173125A1.
Where no end group is shown, it is not given here.

What was measured:
[1] = target: TCRs of naive splenic CD8+CD45RClow Tregs; test: PE and APC tetramer double staining, flow cytometry, 10 µg/mL, 1 hour at 4° C.
[2] = target: TCRs of CD8+CD40Ig Tregs (CD8+CD45RClow Tregs from CD40Ig-treated long-term allograft bearing LEW.1A recipients); test: as above
[3] = target: TCRs of CD8+CD40Ig Tregs (CD8+CD45RClow Tregs from CD40Ig-treated long-term allograft bearing LEW.1A recipients); test: BV421 control tetramer staining, flow cytometry, 10 µg/mL
[4] = target: TCRs of CD8+CD40Ig Tregs (CD8+CD45RClow Tregs from CD40Ig-treated long-term allograft bearing LEW.1A recipients); test: cell-based or functional assay

YLRYDSDVGEYR (peptide-MHC, part only; not given: MHC heavy chain and b2m, part only, also: bound in MHC class I RT1.A^a tetramer with streptavidin-PE or -APC) [MHC class I tetramer RT1.A^a/Bu31-10]
precursor frequency (tetramer-stained cells) in naive splenic CD8+CD45RClow Tregs [1]: 0.187% | percent of Bu31-specific (tetramer-stained) cells among CD8+CD40Ig Tregs, graft [2]: 1.11% | percent of Bu31-specific (tetramer-stained) cells among CD8+CD40Ig Tregs, spleen [2]: 0.281%

ILFPSSERLISNR (peptide-MHC, part only; not given: MHC heavy chain and b2m, part only, also: bound in MHC class I RT1.A^a tetramer with streptavidin-BV421) [control tetramer RT1.A^a/MTF-E]
percent non-specific staining among Bu31-10-specific cells [3]: 1.6%

YLRYDSDVGEYRAVTE [peptide Bu31]
CD25 expression at the cell surface of CD8+CD40Ig Tregs after 6 days with matured syngeneic pDCs, fold vs. no peptide [4]: 1.67 fold
